The text below walks through data of US9163071B2.

In test [1] the target is NF-κB p65, endogenous in the cells (activated by TNFα) (human) (UniProt Q04206).
In test [2] the target is CIAS1-PYD (pyrin only CIAS1 construct) (Homo sapiens (Human)) (UniProt Q96P20).
Test [3] deals with Myc-ASC (Myc-tagged Apoptosis speck protein containing a CARD) (Homo sapiens (Human)) (UniProt Q9ULZ3).
The target of test [4] is NF-κB p65, endogenous in the cells (activated by TNFα) (human) (UniProt Q04206). This is another data set of the same source.

On to “FLAG-POP2 (POP2 with an N-terminal Flag epitope in pcDNA 3.1)”, for which the TNFα-stimulated 3X-NF-κB-Luc reporter (luciferase) in test [1] was 3 fold.
Turning to “GFP-POP2 (GFP fusion of pyrin-only protein 2)”, the percentage of ASC expressing cells containing specks (CIAS1-PYD co-expressed) in test [2] and in test [3] was 10% in each case. The substance further had a p65 localization pattern after TNFa treatment (immunofluorescence, cells scored) in test [4] of 40%.
